Reference: patent EP3088890B1 (Chugai Seiyaku Kabushiki Kaisha, dated 2020)

T1: GPC3 peptide 401-430 (SEQ ID NO: 21) (human)
T1 construct: Synthetic 30-residue peptide of GPC3
T1 peptide: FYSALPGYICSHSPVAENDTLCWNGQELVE

T2: GPC3 peptide 181-210 (SEQ ID NO: 10) (human)
T2 construct: Synthetic 30-residue peptide of GPC3
T2 peptide: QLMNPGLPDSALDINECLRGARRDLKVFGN

T3: GPC3 peptide 21-50 (SEQ ID NO: 2) (human)
T3 construct: Synthetic 30-residue peptide of GPC3
T3 peptide: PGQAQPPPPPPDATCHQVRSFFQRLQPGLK

T4: GPC3 peptide 541-570 (SEQ ID NO: 28) (human)
T4 construct: Synthetic 30-residue peptide of GPC3
T4 peptide: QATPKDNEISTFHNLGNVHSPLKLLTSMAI

T5: GPC3 peptide 61-90 (SEQ ID NO: 4) (human)
T5 construct: Synthetic 30-residue peptide of GPC3
T5 peptide: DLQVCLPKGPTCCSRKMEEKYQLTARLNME

T6: GPC3 peptide 301-330 (SEQ ID NO: 16) (human)
T6 construct: Synthetic 30-residue peptide of GPC3
T6 peptide: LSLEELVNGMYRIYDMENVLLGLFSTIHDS

T7: GPC3 peptide 1-30 (SEQ ID NO: 1) (human)
T7 construct: Synthetic 30-residue peptide of GPC3
T7 peptide: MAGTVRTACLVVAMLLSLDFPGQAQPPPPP

T8: GPC3 peptide 501-530 (SEQ ID NO: 26) (human)
T8 construct: Synthetic 30-residue peptide of GPC3
T8 peptide: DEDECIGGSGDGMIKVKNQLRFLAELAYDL

T9: GPC3 peptide 441-470 (SEQ ID NO: 23) (human)
T9 construct: Synthetic 30-residue peptide of GPC3
T9 peptide: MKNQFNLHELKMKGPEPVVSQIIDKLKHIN

T10: GPC3 peptide 41-70 (SEQ ID NO: 3) (human)
T10 construct: Synthetic 30-residue peptide of GPC3
T10 peptide: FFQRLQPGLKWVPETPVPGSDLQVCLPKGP

T11: GPC3 peptide 481-510 (SEQ ID NO: 25) (human)
T11 construct: Synthetic 30-residue peptide of GPC3
T11 peptide: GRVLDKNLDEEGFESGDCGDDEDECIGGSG

T12: GPC3 peptide 421-450 (SEQ ID NO: 22) (human)
T12 construct: Synthetic 30-residue peptide of GPC3
T12 peptide: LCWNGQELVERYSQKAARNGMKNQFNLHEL

T13: GPC3 peptide 281-310 (SEQ ID NO: 15) (human)
T13 construct: Synthetic 30-residue peptide of GPC3
T13 peptide: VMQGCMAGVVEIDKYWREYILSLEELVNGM

T14: GPC3 peptide 241-270 (SEQ ID NO: 13) (human)
T14 construct: Synthetic 30-residue peptide of GPC3
T14 peptide: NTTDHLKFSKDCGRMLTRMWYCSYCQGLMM

T15: GPC3 peptide 121-150 (SEQ ID NO: 7) (human)
T15 construct: Synthetic 30-residue peptide of GPC3
T15 peptide: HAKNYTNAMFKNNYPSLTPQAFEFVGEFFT

T16: GPC3 peptide 201-230 (SEQ ID NO: 11) (human)
T16 construct: Synthetic 30-residue peptide of GPC3
T16 peptide: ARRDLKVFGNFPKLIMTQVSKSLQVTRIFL

T17: GPC3 peptide 221-250 (SEQ ID NO: 12) (human)
T17 construct: Synthetic 30-residue peptide of GPC3
T17 peptide: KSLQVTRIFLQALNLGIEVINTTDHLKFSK

T18: GPC3 peptide 161-190 (SEQ ID NO: 9) (human)
T18 construct: Synthetic 30-residue peptide of GPC3
T18 peptide: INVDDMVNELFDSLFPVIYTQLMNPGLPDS

T19: GPC3 peptide 381-410 (SEQ ID NO: 20) (human)
T19 construct: Synthetic 30-residue peptide of GPC3
T19 peptide: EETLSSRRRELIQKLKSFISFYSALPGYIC

T20: GPC3 peptide 101-130 (SEQ ID NO: 6) (human)
T20 construct: Synthetic 30-residue peptide of GPC3
T20 peptide: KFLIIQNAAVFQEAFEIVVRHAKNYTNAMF

T21: GPC3 peptide 341-370 (SEQ ID NO: 18) (human)
T21 construct: Synthetic 30-residue peptide of GPC3
T21 peptide: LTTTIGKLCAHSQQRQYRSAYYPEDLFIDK

T22: GPC3 peptide 361-390 (SEQ ID NO: 19) (human)
T22 construct: Synthetic 30-residue peptide of GPC3
T22 peptide: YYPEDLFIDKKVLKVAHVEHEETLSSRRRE

T23: GPC3 peptide 141-170 (SEQ ID NO: 8) (human)
T23 construct: Synthetic 30-residue peptide of GPC3
T23 peptide: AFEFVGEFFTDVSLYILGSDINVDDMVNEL

T24: GPC3 peptide 521-550 (SEQ ID NO: 27) (human)
T24 construct: Synthetic 30-residue peptide of GPC3
T24 peptide: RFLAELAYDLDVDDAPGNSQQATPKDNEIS

T25: GPC3 peptide 461-490 (SEQ ID NO: 24) (human)
T25 construct: Synthetic 30-residue peptide of GPC3
T25 peptide: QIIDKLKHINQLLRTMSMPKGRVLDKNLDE

T26: GPC3 peptide 551-580 (SEQ ID NO: 29) (human)
T26 construct: Synthetic 30-residue peptide of GPC3
T26 peptide: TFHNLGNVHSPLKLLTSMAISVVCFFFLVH

T27: GPC3 peptide 321-350 (SEQ ID NO: 17) (human)
T27 construct: Synthetic 30-residue peptide of GPC3
T27 peptide: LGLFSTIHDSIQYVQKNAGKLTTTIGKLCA

B1: GT165 antibody (antibody, IgG1, V domains shown)
VH: QVQLQQSGAELVGPGASVKISCKAFGYTFTNHHINWVKQRPGQGLDWIGYINPYNDYTNYNQKFKGKATLTVDKSSSTAYMELSSLTSEDSAVYYCARSDPAWFAYWGQGTLVTVSA
VL: DIQMTQSPSSLSASLGGKVTITCKASQDINKNIAWYQHKPGKGPRLLIWYTYTLQPGIPSRFSGSGSGRDYSFSISNLEPEDIATYYCLQYDNLPFTFGTGTKLEIKR

Biological target: T1, GPC3 peptide 401-430 (SEQ ID NO: 21)
Assay: peptide ELISA, peptide on plate

binding result | Binder
no binding (tested: 2 µg/mL) | B1

Biological target: T2, GPC3 peptide 181-210 (SEQ ID NO: 10)
Assay: peptide ELISA, peptide on plate

binding result | Binder
no binding (tested: 2 µg/mL) | B1

Biological target: T3, GPC3 peptide 21-50 (SEQ ID NO: 2)
Assay: peptide ELISA, peptide on plate

binding result | Binder
no binding (tested: 2 µg/mL) | B1

Biological target: T4, GPC3 peptide 541-570 (SEQ ID NO: 28)
Assay: peptide ELISA, peptide on plate

binding result | Binder
no binding (tested: 2 µg/mL) | B1

Biological target: T5, GPC3 peptide 61-90 (SEQ ID NO: 4)
Assay: peptide ELISA, peptide on plate

binding result | Binder
no binding (tested: 2 µg/mL) | B1

Biological target: T6, GPC3 peptide 301-330 (SEQ ID NO: 16)
Assay: peptide ELISA, peptide on plate

binding result | Binder
no binding (tested: 2 µg/mL) | B1

Biological target: T7, GPC3 peptide 1-30 (SEQ ID NO: 1)
Assay: peptide ELISA, peptide on plate

binding result | Binder
no binding (tested: 2 µg/mL) | B1

Biological target: T8, GPC3 peptide 501-530 (SEQ ID NO: 26)
Assay: peptide ELISA, peptide on plate

binding result | Binder
no binding (tested: 2 µg/mL) | B1

Biological target: T9, GPC3 peptide 441-470 (SEQ ID NO: 23)
Assay: peptide ELISA, peptide on plate

binding result | Binder
no binding (tested: 2 µg/mL) | B1

Biological target: T10, GPC3 peptide 41-70 (SEQ ID NO: 3)
Assay: peptide ELISA, peptide on plate

binding result | Binder
no binding (tested: 2 µg/mL) | B1

Biological target: T11, GPC3 peptide 481-510 (SEQ ID NO: 25)
Assay: peptide ELISA, peptide on plate

binding result | Binder
no binding (tested: 2 µg/mL) | B1

Biological target: T12, GPC3 peptide 421-450 (SEQ ID NO: 22)
Assay: peptide ELISA, peptide on plate

binding result | Binder
no binding (tested: 2 µg/mL) | B1

Biological target: T13, GPC3 peptide 281-310 (SEQ ID NO: 15)
Assay: peptide ELISA, peptide on plate

binding result | Binder
no binding (tested: 2 µg/mL) | B1

Biological target: T14, GPC3 peptide 241-270 (SEQ ID NO: 13)
Assay: peptide ELISA, peptide on plate

binding result | Binder
no binding (tested: 2 µg/mL) | B1

Biological target: T15, GPC3 peptide 121-150 (SEQ ID NO: 7)
Assay: peptide ELISA, peptide on plate

binding result | Binder
no binding (tested: 2 µg/mL) | B1

Biological target: T16, GPC3 peptide 201-230 (SEQ ID NO: 11)
Assay: peptide ELISA, peptide on plate

binding result | Binder
no binding (tested: 2 µg/mL) | B1

Biological target: T17, GPC3 peptide 221-250 (SEQ ID NO: 12)
Assay: peptide ELISA, peptide on plate

binding result | Binder
no binding (tested: 2 µg/mL) | B1

Biological target: T18, GPC3 peptide 161-190 (SEQ ID NO: 9)
Assay: peptide ELISA, peptide on plate

binding result | Binder
no binding (tested: 2 µg/mL) | B1

Biological target: T19, GPC3 peptide 381-410 (SEQ ID NO: 20)
Assay: peptide ELISA, peptide on plate

binding result | Binder
no binding (tested: 2 µg/mL) | B1

Biological target: T20, GPC3 peptide 101-130 (SEQ ID NO: 6)
Assay: peptide ELISA, peptide on plate

binding result | Binder
no binding (tested: 2 µg/mL) | B1

Biological target: T21, GPC3 peptide 341-370 (SEQ ID NO: 18)
Assay: peptide ELISA, peptide on plate

binding result | Binder
no binding (tested: 2 µg/mL) | B1

Biological target: T22, GPC3 peptide 361-390 (SEQ ID NO: 19)
Assay: peptide ELISA, peptide on plate

binding result | Binder
no binding (tested: 2 µg/mL) | B1

Biological target: T23, GPC3 peptide 141-170 (SEQ ID NO: 8)
Assay: peptide ELISA, peptide on plate

binding result | Binder
no binding (tested: 2 µg/mL) | B1

Biological target: T24, GPC3 peptide 521-550 (SEQ ID NO: 27)
Assay: peptide ELISA, peptide on plate

binding result | Binder
no binding (tested: 2 µg/mL) | B1

Biological target: T25, GPC3 peptide 461-490 (SEQ ID NO: 24)
Assay: peptide ELISA, peptide on plate

binding result | Binder
no binding (tested: 2 µg/mL) | B1

Biological target: T26, GPC3 peptide 551-580 (SEQ ID NO: 29)
Assay: peptide ELISA, peptide on plate

binding result | Binder
no binding (tested: 2 µg/mL) | B1

Biological target: T27, GPC3 peptide 321-350 (SEQ ID NO: 17)
Assay: peptide ELISA, peptide on plate

binding result | Binder
no binding (tested: 2 µg/mL) | B1

biological target: T28, AW3, C-terminally His-tagged recombinant product of positions 1 to 218 of GPC3 (human, UniProt P51654 25-218); assay: Western blot, pellets of CHO cells expressing the product
T28 construct: Expressed in CHO cells, cell pellets used in Western blot; The range is as printed and starts at position 1; not shown: C-terminal His tag
T28 sequence (P51654 25-218): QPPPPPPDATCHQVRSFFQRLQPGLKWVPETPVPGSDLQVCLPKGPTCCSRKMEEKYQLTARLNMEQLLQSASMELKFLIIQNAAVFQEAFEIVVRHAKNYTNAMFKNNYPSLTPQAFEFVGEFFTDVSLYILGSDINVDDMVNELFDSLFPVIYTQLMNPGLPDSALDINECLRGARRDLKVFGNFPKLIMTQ

binding result | Binder
no binding | B1

biological target: T29, AW2, C-terminally His-tagged recombinant product of positions 1 to 196 of GPC3 (human, UniProt P51654 25-196); assay: as above
T29 construct: Expressed in CHO cells, cell pellets used in Western blot; The range is as printed and starts at position 1; also called AW2 (1-196); not shown: C-terminal His tag
T29 sequence (P51654 25-196): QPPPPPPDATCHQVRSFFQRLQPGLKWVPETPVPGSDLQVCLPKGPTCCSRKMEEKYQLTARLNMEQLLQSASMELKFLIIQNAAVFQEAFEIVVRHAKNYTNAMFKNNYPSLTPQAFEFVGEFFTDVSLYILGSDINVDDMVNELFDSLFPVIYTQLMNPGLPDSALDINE

binding result | Binder
no binding | B1
